These results are taken from US20060270596A1 (CENTRE NATIONAL DE LA RECHERCHE SCIENTIFIQUE CNRS, published 2006).

For experiment [1], the target named is T1, human THAP1 (THanatos-Associated-Protein-1), full length (human, UniProt Q9NVV9 1-213).
T1 construct: these tags are not written into the chain; also called hTHAP1; THAP1 wild type
T1 sequence: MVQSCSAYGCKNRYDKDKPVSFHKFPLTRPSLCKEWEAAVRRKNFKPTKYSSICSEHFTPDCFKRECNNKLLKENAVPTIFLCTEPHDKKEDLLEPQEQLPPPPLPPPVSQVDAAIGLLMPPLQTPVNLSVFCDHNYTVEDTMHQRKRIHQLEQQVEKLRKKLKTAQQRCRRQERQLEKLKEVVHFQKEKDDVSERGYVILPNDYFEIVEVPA
Kind of experiment: yeast two-hybrid, both orientations. The method, then: To identify potential protein partners of THAP1, screening of the two-hybrid HEVEC cDNA library was performed using as a bait the human THAP1 full length cDNA inserted into the […] two-hybrid system 3 vector pGBKT7 (Clontech). Briefly, the full-length coding region of THAP1 was amplified by PCR from HEVEC cDNA with primers 2HMR10 (5′-[…]-3′) (SEQ ID NO: 187) and 2HMR9 (5′-[…]-3′) (SEQ ID NO: 188), digested with EcoRI and BamHI, and cloned in frame downstream of the Gal4 Binding Domain (Gal4-BD) in pGBKT7 vector to generate pGBKT7-THAP1. pGBKT7-THAP1 was then cotransformed with the pGAD424-HEVEC cDNA library in yeast strain AH109 (Clontech). 1.5×10⁷ yeast transformants were screened and positive protein interactions were selected by His and Ade double auxotrophy according to manufacturer's instructions ([…] two-hybrid system 3, Clontech). The plates were incubated at 30° C. for 5 days. Plasmid DNA was extracted from these positive colonies and used to verify the specificity of the interaction by cotransformation in AH109 with pGBKT7-THAP1 or control baits pGBKT7, pGBKT7-lamin and pGBKT7-hevin. […] Positive interaction between THAP1 and Par4 was confirmed using full length Par4 bait (pGBKT-Par4) and prey (pGADT7-Par4). […]

The target in experiment [2] is T2, THAP1ΔQRCRR mutant (deletion of residues 168-172) (human, UniProt Q9NVV9 1-213).
T2 sequence: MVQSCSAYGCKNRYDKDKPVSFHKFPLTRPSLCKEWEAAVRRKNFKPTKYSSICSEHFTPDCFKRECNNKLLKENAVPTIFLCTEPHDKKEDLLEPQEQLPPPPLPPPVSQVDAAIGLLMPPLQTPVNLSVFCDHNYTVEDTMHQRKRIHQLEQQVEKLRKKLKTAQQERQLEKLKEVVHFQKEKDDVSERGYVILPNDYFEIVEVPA
Kind of experiment: yeast two-hybrid and in vivo interaction assay.

B1: Par4 leucine zipper/death domain (Par4DD, amino acids 250-342) (other)
chain: GFPRYNRDANVSGTLVSSSTLEKKIEDLEKEVVTERQENLRLVRLMQDKEEMIGKLKEEIDLLNRDLDDIEDENEQLKQENKTLLKVVGQLTR
notes: Gal4 fusion in two-hybrid; also called myc-Par4DD
Regarding B1, the binding result in experiment [1] was “binds”; in experiment [2], “no binding”.
